We go through six molecules from patent publication US20250361297A1 (ADAPTAM THERAPEUTICS S L, published 2025).

Experiment [1] deals with T1, recombinant Siglec-15 (bispecific antibody affinity assay) (Homo sapiens (Human), UniProt Q6ZMC9 20-263, limits assumed).
T1 sequence: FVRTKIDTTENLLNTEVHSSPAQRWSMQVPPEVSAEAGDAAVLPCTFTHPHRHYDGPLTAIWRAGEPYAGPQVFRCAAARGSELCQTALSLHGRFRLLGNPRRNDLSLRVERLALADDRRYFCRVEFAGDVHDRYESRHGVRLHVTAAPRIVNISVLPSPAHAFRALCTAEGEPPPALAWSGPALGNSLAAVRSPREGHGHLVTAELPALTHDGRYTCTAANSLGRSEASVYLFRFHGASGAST
Briefly: antibody as ligand, human Siglec15 as analyte; legend paragraph 114 says BLI, methods paragraph 422 say Biacore SPR, table in RU.

For experiment [2], the target named is T2, truncated human Siglec-15 comprising only domain 2 (D2), expressed on HEK293T cells (human, UniProt Q6ZMC9 168-251, limits assumed).
T2 construct: also called domain 2-only human Siglec-15; Siglec-15 Domain 2 (D2) HEK293T cells
T2 sequence: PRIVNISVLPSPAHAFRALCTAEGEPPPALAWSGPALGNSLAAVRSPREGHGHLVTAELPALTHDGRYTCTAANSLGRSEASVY
Briefly: flow cytometry on HEK 293T cells expressing only D2; compared to antibody clone A2A5C7E8.

Experiment [3] concerns the target T3, recombinant human Siglec-15-his protein (Bonopusbio) (human, UniProt Q6ZMC9 20-263).
T3 construct: Bought (CW37-50 ug in the ELISA; the SPR paragraph prints CW70-50 ug); whole entry named; also called recombinant human Siglec-15 protein
T3 sequence: T1 sequence
Briefly: SPR (Biacore T200), antibody on CM5 chip, Siglec-15-his as analyte.

Experiment [4] deals with T4, human Siglec-15, full length, expressed on cells (human, UniProt Q6ZMC9 20-328).
T4 construct: also called hS15; MOLM-13 Siglec-15 expressing cells
T4 sequence: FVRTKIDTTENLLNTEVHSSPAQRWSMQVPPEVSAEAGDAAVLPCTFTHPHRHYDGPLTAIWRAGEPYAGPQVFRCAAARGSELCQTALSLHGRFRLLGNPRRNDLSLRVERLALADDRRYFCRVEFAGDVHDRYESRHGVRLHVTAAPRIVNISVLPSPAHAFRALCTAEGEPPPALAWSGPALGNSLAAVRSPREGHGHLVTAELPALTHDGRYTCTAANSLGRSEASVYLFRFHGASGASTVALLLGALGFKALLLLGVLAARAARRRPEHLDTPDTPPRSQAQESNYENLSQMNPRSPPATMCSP
The experiment is described as follows: flow cytometry, HEK293T cells expressing human Siglec-15, anti-human IgG-PE, MFI.

Experiment [5] addresses T3, recombinant human Siglec-15-his protein …. The experiment is described as follows: ELISA, plate coated with 100 ng per well recombinant human Siglec-15 (supplier not named in Example 3), HRP anti-mouse IgG, OD450.
Experiment [6] has as its target T5, recombinant cynomolgus Siglec-15-his protein (Bonopusbio, CW70-50 ug) (cynomolgus monkey, UniProt Q6ZMC9 20-259 (human entry)).
T5 construct: whole entry named; also called cynomolgous Siglec-15
T5 chain: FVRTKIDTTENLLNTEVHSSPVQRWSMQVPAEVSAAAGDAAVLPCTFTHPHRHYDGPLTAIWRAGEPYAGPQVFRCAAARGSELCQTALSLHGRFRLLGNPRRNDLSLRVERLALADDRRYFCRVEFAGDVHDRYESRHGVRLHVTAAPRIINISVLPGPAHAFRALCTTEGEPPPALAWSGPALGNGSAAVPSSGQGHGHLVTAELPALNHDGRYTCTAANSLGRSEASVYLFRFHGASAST
Briefly: ELISA, plate coated with recombinant cynomolgus Siglec-15-his, antibody titrated up to about 200 nM, OD 450 nm.

The target in experiment [7] is T4, human Siglec-15, full length, expressed …. The experiment is described as follows: flow cytometry, THP-1 cells overexpressing human Siglec-15, ADC titrated, anti-human IgG-PE, gMFI.
Experiment [8] shares this target. The description is as above. This is another data set of the same source.
In another experiment the target is T6, CD3 on Jurkat cells (UniProt P07766 23-207).
T6 construct: whole, on cells; Whole CD3 complex on cells; also called CD3-expressing Jurkat cells; Jurkat cells expressing CD3
Briefly: flow cytometry, Jurkat cells expressing CD3, gMFI.

The next experiment addresses recombinant CD3 (UniProt P07766 23-126; P09693 23-116). Briefly: antibody as ligand, 'Human CD3 epsilon&CD3 gamma' as analyte; legend paragraph 116 says BLI, methods paragraph 422 say Biacore SPR, table in RU.
Experiment [9] has as its target T4, human Siglec-15, full length, expressed …. The experiment is described as follows: IgG1 titration, flow cytometry on MOLM-13 human Siglec-15 cells.
In experiment [10] the target is T2, truncated human Siglec-15 comprising …. Briefly: flow cytometry on HEK293T cells expressing domain 2 only (FIG. 16).
Experiment [11] concerns the target T7, mouse Siglec-15, full length, expressed on HEK293T cells (mouse).
T7 construct: also called mS15; HEK293T cells expressing mouse Siglec-15
T7 chain: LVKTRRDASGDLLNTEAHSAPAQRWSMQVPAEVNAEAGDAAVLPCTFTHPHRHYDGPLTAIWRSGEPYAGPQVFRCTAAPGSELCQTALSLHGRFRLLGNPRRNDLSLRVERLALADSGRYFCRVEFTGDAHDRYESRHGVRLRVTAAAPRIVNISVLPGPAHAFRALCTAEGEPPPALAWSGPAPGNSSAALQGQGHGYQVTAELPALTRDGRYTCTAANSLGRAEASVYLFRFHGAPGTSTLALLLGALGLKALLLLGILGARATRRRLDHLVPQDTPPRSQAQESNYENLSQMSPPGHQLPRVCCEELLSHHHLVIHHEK
The experiment is described as follows: IgG1 titration, flow cytometry on HEK293T cells expressing mouse Siglec-15.

In experiment [12] the target is T4, human Siglec-15, full length, expressed …. Briefly: flow cytometry, THP-1 cells overexpressing human Siglec-15, ADC titrated, anti-human IgG-PE, gMFI. This is another data set of the same source.

Chain of recombinant CD3 (P07766 23-126, form in doubt, chain 1 of 2): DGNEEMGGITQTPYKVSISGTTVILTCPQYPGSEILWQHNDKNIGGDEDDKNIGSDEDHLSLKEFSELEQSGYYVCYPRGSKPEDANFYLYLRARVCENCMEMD
Chain of recombinant CD3 (P09693 23-116, form in doubt, chain 2 of 2): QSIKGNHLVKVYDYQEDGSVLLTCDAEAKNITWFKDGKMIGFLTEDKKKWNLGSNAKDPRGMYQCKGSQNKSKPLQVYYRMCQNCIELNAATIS
T6 sequence (P07766 23-207): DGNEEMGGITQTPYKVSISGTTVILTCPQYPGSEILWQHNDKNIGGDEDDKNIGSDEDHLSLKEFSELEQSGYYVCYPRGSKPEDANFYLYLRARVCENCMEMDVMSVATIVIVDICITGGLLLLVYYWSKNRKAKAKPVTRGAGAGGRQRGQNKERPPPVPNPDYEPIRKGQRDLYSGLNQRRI

B1: S15B1 (antibody, V domains shown)
VH: QVQLQQSGPELVKPGASVKISCKASGYAFSSSWMNWVKQRPGKGLEWIGRIYPGHGETNYNGKFKDKATVTADKSSSTTYMQLSSLTSEDSAVYFCARVDNSDPYYFDYWGQGTTLTVSS
VL: DIVLTQSPASLAVSLGQRATISCRASKSVSTSGYSYMHWYQQKPGQPPKLLIYLASNLESGVPARFSGSGSGTDFTLNIHPVEEEDAATYYCQHGRELPFTFGSGTKLEIK
notes: Mouse hybridoma monoclonal antibody ('parental mouse S15B1'); also called clone S15B1; S15B1-VH + VL (Parental)
As for B1, the Kd in [1] turned out to be 0.0497 nM; in experiment [3], 0.0522 nM. In addition, the koff in experiment [1] is 0.000154 s⁻¹; in experiment [3], 0.000233 s⁻¹. In addition, the kon in experiment [1] was 3.11e+06 M⁻¹ s⁻¹; in experiment [3], 4.46e+06 M⁻¹ s⁻¹. Besides, the “fold increase in antibody-positive cells” value in [2] was approximately 4 fold. The results for the “EC50 (read off the curve)” value in [4], in [5] and in [6] were approximately 0.5 nM, approximately 0.2 µg/mL and approximately 0.6 nM, respectively.

B2: S15B1-Exatecan ADC (other)
VH: B1 VH
VL: B1 VL
modifications: MC-GGFG-Exatecan payload linker conjugated to the antibody; residue not stated
notes: Antibody-drug conjugate; also called S15B1-based antibody-drug conjugate with Exatecan
Turning to B2, in [7], the “EC50 (read off the curve)” value is approximately 6 nM.

B3: S15B1-MMAE ADC (other)
VH: B1 VH
VL: B1 VL
modifications: vc-MMAE payload linker conjugated to the antibody; residue not stated
notes: Antibody-drug conjugate; also called S15B1-based antibody-drug conjugate with MMAE
With B3, the “EC50 (read off the curve)” value in [8] is approximately 8 nM.

B4: BsAb-1 (bispecific antibody, human IgG1, kappa, lambda, L234A L235A)
light 1: not shown
heavy 1: QVQLQQSGPELVKPGASVKISCKASGYAFSSSWMNWVKQRPGKGLEWIGRIYPGHGETNYNGKFKDKATVTADKSSSTTYMQLSSLTSEDSAVYFCARVDNSDPYYFDYWGQGTTLTVSSASTKGPSVFPLAPSSKSTSGGTAALGCLVKDYFPEPVTVSWNSGALTSGVHTFPAVLQSSGLYSLSSVVTVPSSSLGTQTYICNVNHKPSNTKVDKKVEPKSCDKTHTCPPCPAPEAAGGPSVFLFPPKPKDTLMISRTPEVTCVVVDVSHEDPEVKFNWYVDGVEVHNAKTKPREEQYNSTYRVVSVLTVLHQDWLNGKEYKCKVSNKALPAPIEKTISKAKGQPREPQVCTLPPSRDELTKNQVSLSCAVKGFYPSDIAVEWESNGQPENNYKTTPPVLDSDGSFFLVSKLTVDKSRWQQGNVFSCSVMHEALHNHYTQKSLSLSPGK
heavy 2: not shown
light 2: QTVVTQEPSFSVSPGGTVTLTCRSSTGAVTTSNYANWVQQTPGQAPRGLIGGTNKRAPGVPARFSGSILGNKAALTITGAQADDEAEYFCALWYSNLWVFGGGTKLTVLASTKGPSVFPLAPSSKSTSGGTAALGCLVKDYFPEPVTVSWNSGALTSGVHTFPAVLQSSGLYSLSSVVTVPSSSLGTQTYICNVNHKPSNTKVDKKVEPKSC
notes: S15B1 arm and humanized SP34 anti-CD3 arm; also called anti-Siglec-15/CD3 bispecific antibody, Format-1: KIH & CrossmAb
As to B4, in experiment [1], the Kd is 0.0865 nM, the off-rate constant (koff) amounted to 0.00025 s⁻¹ and the kon came out at 2.89e+06 M⁻¹ s⁻¹. Further, the concentration giving a half-maximal response (EC50 (read off the curve)) with CD3 on Jurkat cells was approximately 4 nM. Also, in the experiment with recombinant CD3, the equilibrium dissociation constant (Kd) amounted to 115 nM, the koff is 0.011 s⁻¹ and the on-rate (kon) was determined as 95800 M⁻¹ s⁻¹.

B5: ZLA-1214-H05 (antibody, V domains shown)
VH: QVQLVQSGAEVKKPGASVKVSCKASGYTFTSYGISWVRQAPGQGLEWMGWISAYNGNTNYAQKLQGRVTMTTDTSTSTAYMELRSLRSDDTAVYYCARMSGYYGMDVWGQGTLVTVSS
VL: DIQLTQSPSSLSASVGDRVTITCQASQGISNYLNWYQQKPGKAPKLLIYDASNLETGVPSRFSGSGSGTDFTFTISSLQPEDIATYYCQQYDNLPLTFGGGTKLEIK
notes: Fully human, from phage display
As for B5, the EC50 stood at 0.593 µg/mL in experiment [9] and 0.561 µg/mL in experiment [11]. For the same molecule, the binding result in [10] is given as “no binding”.

B6: ZLA-1243-E01-MMAE (other)
VH: QVQLVQSGGGLVQPGRSLRLSCAASGFTFDDYAMHWVRQAPGKGLEWVSGISWNSGSIGYADSVKGRFTISRDNAKNSLYLQMNSLRAEDTALYYCAKGLWPSYDLDAFDIWGQGTMVTVSS
VL: QSALTQPASVSGSPGQSITLSCTGTSSDVGAYNFVSWYQQHPGTAPKLMIYEVSNRPSGVSDRFSGSKSGNTASLTISGLQAEDEADYYCSSYTSTIPPFVFGTGTKVTVL
modifications: vc-MMAE payload linker conjugated to the antibody; residue not stated
Regarding B6, in experiment [12], the “EC50 (read off the curve)” value was approximately 3 nM.
